The results in this text go back to patent US20180021429A1, “ANTICANCER AGENTS OR ANTIMETASTATIC AGENTS USING FSTL1 AND COMBINATION DRUG THEREOF” (PHARMA FOODS INTERNATIONAL CO., LTD., priority 2015, published 2018).

For assay [1], the system named is induction of mesenchymal stem cells (MSCs) by FSTL1. Description: Inhibitory activity against MSC induction, ALCAM-/PDGFRA-positive cells (Example 4). The conditions noted are these: mouse bone marrow cells; FSTL1 50 ng/mL; antibody 10 μg/mL; 11 days; vs control antibody. The class given is cell-based. As for the experimental part: It is known that when bone marrow cells are stimulated with FSTL1, mesenchymal stem cells (MSCs) having pluripotency or self-proliferative capacity grow (Cancer Research 73: 6185, 2013). Thus, 2×10^7 cells/well of bone marrow cells collected from the thigh bone of a C57BL/6 mouse were suspended in 3 mL/well of RPMI1640 (GIBCO/Thermo Fisher Scientific Inc., Cat. No. C11875500BT) medium containing 2% fetal bovine serum, supplemented with 50 ng/mL (final concentration) of FSTL1 (R&D Systems, Inc. Cat#1694-FN-050) and 10 μg/mL of the anti-FSTL1 antibody (#5-2, #5-3, #5-8, #5-10, #5-43, #6-55, or #7-34) or its isotype mouse IgG (anti-DNP antibody) as a control antibody “Control”, and cultured under stimulation (6-well plate). 11 days thereafter, the number of cells was counted while the cells were stained with a PE-labeled anti-ALCAM antibody
(eBioscience, Cat. No. 12-1661-82) and a PE-labeled anti-PDGFRA antibody (eBioscience, Cat#12-1401-81) in order to examine the expression of MSC markers, and the contents of ALCAM-positive cells and PDGFR-positive cells were analyzed by flow cytometry using FACScan (Becton, Dickinson and Company, Code. BECTON-DICKINSON-FACSCAN) to calculate the number of each positive cell per culture.
It is known that when bone marrow cells are stimulated with FSTL1, mesenchymal stem cells (MSCs) having pluripotency or self-proliferative capacity grow (Cancer Research 73: 6185, 2013). […] 11 days thereafter, the number of cells was counted while the cells were stained with a PE-labeled anti-ALCAM antibody (eBioscience, Cat. No. 12-1661-82) and a PE-labeled anti-PDGFRA antibody (eBioscience, Cat#12-1401-81) in order to examine the expression of MSC markers, and the contents of ALCAM-positive cells and PDGFR-positive cells were analyzed by flow cytometry using FACScan (Becton, Dickinson and Company, Code. BECTON-DICKINSON-FACSCAN) to calculate the number of each positive cell per culture.

The target in another assay is T1, FSTL1 (Homo sapiens, UniProt Q12841).
T1 sequence (Q12841 21-308): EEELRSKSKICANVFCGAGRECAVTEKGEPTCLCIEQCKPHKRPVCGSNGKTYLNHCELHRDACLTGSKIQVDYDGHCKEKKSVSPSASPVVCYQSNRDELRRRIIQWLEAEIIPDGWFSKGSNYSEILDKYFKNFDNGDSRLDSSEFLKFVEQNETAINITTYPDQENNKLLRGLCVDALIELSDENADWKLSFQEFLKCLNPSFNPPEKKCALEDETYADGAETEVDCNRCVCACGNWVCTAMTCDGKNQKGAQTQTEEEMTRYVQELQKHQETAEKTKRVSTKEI
Description: Inhibition of MSC induction by FSTL1 in mouse bone marrow cells, ALCAM- and PDGFRA-positive cells (Example 4). In kind it is cell-based. More on the design: purchased R&D Systems, Inc. 1694-FN-050. The conditions noted are these: FSTL1 50 ng/mL, antibody 10 μg/mL, 11 days, vs control anti-DNP antibody. The protocol: It is known that when bone marrow cells are stimulated with FSTL1, mesenchymal stem cells (MSCs) having pluripotency or self-proliferative capacity grow (Cancer Research 73: 6185, 2013). Thus, 2×10^7 cells/well of bone marrow cells collected from the thigh bone of a C57BL/6 mouse were suspended in 3 mL/well of RPMI1640 (GIBCO/Thermo Fisher Scientific Inc., Cat. No. C11875500BT) medium containing 2% fetal bovine serum, supplemented with 50 ng/mL (final concentration) of FSTL1 (R&D Systems, Inc. Cat#1694-FN-050) and 10 μg/mL of the anti-FSTL1 antibody (#5-2, #5-3, #5-8, #5-10, #5-43, #6-55, or #7-34) or its isotype mouse IgG (anti-DNP antibody) as a control antibody “Control”, and cultured under stimulation (6-well plate). 11 days thereafter, the number of cells was counted while the cells were stained with a PE-labeled anti-ALCAM antibody (eBioscience, Cat. No. 12-1661-82) and a PE-labeled anti-PDGFRA antibody (eBioscience, Cat#12-1401-81) in order to examine the expression of MSC markers, and the contents of ALCAM-positive cells and PDGFR-positive cells were analyzed by flow cytometry using FACScan (Becton, Dickinson and Company, Code. BECTON-DICKINSON-FACSCAN) to calculate the number of each positive cell per culture.

B1: #5-43: chicken-mouse chimeric anti-FSTL1 antibody clone; variable regions SEQ ID NO: 779 (light), 781 (heavy) (antibody, V domains shown)
VH: AVTLDESGGGLQTPGGGLSLVCKGSGFTFSSFNMFWVRQAPGKGLEWVAGIGKDGGTGYGAAVDGRATISKDSGQSTLRLQLNNLRAEDTGTYYCAKAAGGCSYDWCGAYTGDIDTWGHGTEVIVSS
VL: ASTQPSSVSANPGEAVKITCSGGSGSYYGWYQQKSPGSAPVTVIYNNNQRPSDIPSRFSGSKSGSTATLTITGVQAEDEAVYFCGGYDSSTGHGGIFGAGTTLTVL
modifications: mouse constant regions
Regarding B1, the “inhibitory activity against the expansion of ALCAM-positive cells and PDGFRA-positive cells by FSTL1” value (“inhibitory activity” for short) (in assay [1]; with FSTL1) was “slightly strong tendency of inhibitory activity” throughout.

B2: #6-55: chicken-mouse chimeric anti-FSTL1 antibody clone; variable regions SEQ ID NO: 783 (light), 785 (heavy) (antibody, V domains shown)
VH: AVTLDESGGGLQTPGGALSLVCKGSGFTFTSVTMQWVRQAPGKGLEWVASVCSGSSTYYAPAVKGRATISRDNGQSTVRLQLSNLRPEDTGTYYCAKIAGRARWSCTSAAYNIDAWGHGTEVIVSS
VL: ASTQPSSVSAIPGETVKITCSGGGNNYGWYQQRSPGSAPVTVIYYNDNRPSNIPSRFSGSTSGSTSTLTITGVQADDEAIYYCGSWDSNTDSGIFGAGTTLTVL
modifications: mouse constant regions
For B2, the “inhibitory activity” value (in assay [1]; with FSTL1) was “slightly strong tendency of inhibitory activity” each time.

B3: #7-34: chicken-mouse chimeric anti-FSTL1 antibody clone; variable regions SEQ ID NO: 787 (light), 789 (heavy) (antibody, V domains shown)
VH: AVTLDESGGGLQTPGGGLSLVCKASGFTFSSVTMQWVRQAPGKGLEWVASICSGSSTYYGPAVKGRATISRDNGQNTVRLQLNNLRAEDTATYYCAKIVGRGRWSCTSAAYNIDAWGHGTEVIVSS
VL: ASTQPSSVSANPGETVKITCSGGGNNYGWYQQKSPGSAPVTVIYYNNNRPSNIPSRFSGSTSGSTSTLTITGVQAEDEAVYYCGSYEGSTDSGIFGAGTTLTVL
modifications: mouse constant regions
With B3, the “inhibitory activity” value (in assay [1]; with FSTL1) was “slightly strong tendency of inhibitory activity” each time.
